Target: T1, Calreticulin (CRT), endogenous mouse (mouse (endogenous in GT1), UniProt P14211 18-416)
T1 construct: Calreticulin (CRT), mouse, immunoprecipitated with anti-CRT antibody; also called ER chaperone Calreticulin; source: endogenous, GT1 lysate
T1 sequence (looked up): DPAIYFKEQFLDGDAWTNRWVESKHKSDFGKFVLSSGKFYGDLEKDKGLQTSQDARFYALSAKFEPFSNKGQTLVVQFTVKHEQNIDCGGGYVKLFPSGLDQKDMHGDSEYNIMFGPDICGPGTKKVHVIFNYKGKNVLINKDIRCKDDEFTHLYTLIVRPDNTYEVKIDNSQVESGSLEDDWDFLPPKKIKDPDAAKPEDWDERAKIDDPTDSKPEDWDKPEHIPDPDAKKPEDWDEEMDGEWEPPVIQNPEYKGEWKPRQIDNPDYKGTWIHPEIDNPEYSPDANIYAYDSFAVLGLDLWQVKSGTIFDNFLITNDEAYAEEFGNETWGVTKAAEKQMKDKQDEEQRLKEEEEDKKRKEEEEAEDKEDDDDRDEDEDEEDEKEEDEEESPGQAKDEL
Assay: co-IP; Calreticulin immunoprecipitated from GT1 lysates (JS buffer, 1% TX-100, 150 mM NaCl, pH 7.5) with anti-CRT Ab and protein A-Sepharose overnight at 4 °C; Sho revealed by Western blot with SPRN-R12; cells under control conditions or cholesterol depletion (βCD 10 mM, 1 h)
Conditions: partners not purified

B1: Shadoo (Sho), mature fully glycosylated ~22 kDa isoform, endogenous mouse (natural protein, mouse (endogenous in GT1), UniProt Q8BWU1 25-122, looked up)
chain: KGGRGGARGSARGVRGGARGASRVRVRPAPRYGSSLRVAAAGAAAGAAAGVAAGLATGSGWRRTSGPGELGLEDDENGAMGGNGTDRGVYSYWAWTSG
modifications: fully N-glycosylated (complex-glycosylated)
notes: Shadoo (Sho, SPRN), mouse, the mature fully glycosylated isoform that migrates at ~22 kDa; also called mature Sho; mature glycosylated Sho; source: endogenous, GT1 lysate
fold increase in the immunocomplex upon cholesterol depletion against control: ~3 fold
